Reference: patent US20260000759A1 (Genentech, published 2026)

Target: T1, human oncostatin M receptor beta (OSMRβ) (human, UniProt Q99650 28-979)
T1 sequence (looked up): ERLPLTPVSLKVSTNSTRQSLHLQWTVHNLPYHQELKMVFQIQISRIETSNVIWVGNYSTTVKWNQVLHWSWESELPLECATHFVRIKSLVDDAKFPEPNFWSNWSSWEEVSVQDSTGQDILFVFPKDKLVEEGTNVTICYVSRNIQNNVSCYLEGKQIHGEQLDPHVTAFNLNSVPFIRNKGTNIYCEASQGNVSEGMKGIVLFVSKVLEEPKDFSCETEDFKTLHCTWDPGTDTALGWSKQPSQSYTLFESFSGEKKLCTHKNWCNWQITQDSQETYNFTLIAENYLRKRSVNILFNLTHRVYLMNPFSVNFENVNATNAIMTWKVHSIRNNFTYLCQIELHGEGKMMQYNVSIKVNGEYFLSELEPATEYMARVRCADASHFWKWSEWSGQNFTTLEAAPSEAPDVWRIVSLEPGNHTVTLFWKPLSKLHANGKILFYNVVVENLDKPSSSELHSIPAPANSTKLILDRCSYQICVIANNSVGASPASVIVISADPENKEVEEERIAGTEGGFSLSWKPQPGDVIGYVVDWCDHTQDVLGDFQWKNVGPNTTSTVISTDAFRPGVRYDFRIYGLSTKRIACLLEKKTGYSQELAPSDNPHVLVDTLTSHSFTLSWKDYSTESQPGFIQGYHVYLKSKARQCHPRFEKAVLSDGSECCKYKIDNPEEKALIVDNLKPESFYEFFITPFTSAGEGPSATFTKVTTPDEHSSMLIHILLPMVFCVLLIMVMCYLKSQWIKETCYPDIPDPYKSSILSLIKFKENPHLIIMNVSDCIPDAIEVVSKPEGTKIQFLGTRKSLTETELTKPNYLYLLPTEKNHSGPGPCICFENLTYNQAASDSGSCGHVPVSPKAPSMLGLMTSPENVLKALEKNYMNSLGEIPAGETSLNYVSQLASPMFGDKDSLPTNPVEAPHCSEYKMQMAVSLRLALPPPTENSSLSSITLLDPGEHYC
Experiment: cell-based or functional assay

- Mean of IC50, inhibition of OSM-induced STAT3 phosphorylation (pSTAT3 Tyr705, MSD); IPF-derived lung fibroblasts, [OSM] 1 ng/mL: 12.4 ng/mL
- Mean of IC50, inhibition of OSM-induced STAT3 phosphorylation (pSTAT3 Tyr705, MSD); IPF-derived lung fibroblasts, [OSM] 10 ng/mL: 56.1 ng/mL
- Mean of IC50, inhibition of OSM-induced STAT3 phosphorylation (pSTAT3 Tyr705, MSD); normal keratinocytes, [OSM] 10 ng/mL: 4.95 ng/mL
- Mean of IC50, inhibition of OSM-induced STAT3 phosphorylation (pSTAT3 Tyr705, MSD); normal keratinocytes, [OSM] 100 ng/mL: 45 ng/mL
- Mean of IC50, inhibition of OSM-induced STAT3 phosphorylation (pSTAT3 Tyr705, MSD); normal lung fibroblasts, [OSM] 1 ng/mL: 13 ng/mL
- Mean of IC50, inhibition of OSM-induced STAT3 phosphorylation (pSTAT3 Tyr705, MSD); normal lung fibroblasts, [OSM] 10 ng/mL: 88.2 ng/mL
B1: vixarelimab (antibody, human IgG4 S228P, lambda, N297Q, V domains shown)
VH: QVQLVQSGAEVKKPGASVKVSCKASGYTFTSYEINWVRQATGQGLEWMGWMNPNSGYTGYAQKFQGRVTMTRDTSISTAYMEMSSLRSEDTAVYYCARDIVAANTDYYFYYGMDVWGQGTTVTVSS
VL: QSVLTQPPSASGTPGQRVTISCSGSNSNIGSNTVNWYHQLPGTAPKLLIYNINKRPSGVPDRFSGSKSGSSASLAISGLQSEDEADYYCSTWDDSLDGVVFGGGTKLTVLG
